Patent US20250346643A1, “TROPOMYOSIN KINASE RECEPTOR (TRK) LIGANDS AS THERAPEUTICS TO SUPPORT LIVER REGENERATION” (Vanderbilt University, priority 2024, published 2025)

System: primary mouse hepatocytes
Test: Cell proliferation assay (CellTiter-Glo) in primary mouse hepatocytes
Assay type: cell-based
Conditions: for increase of primary hepatocyte proliferation: HGF 5 ng/ml, serum-free medium (FIG. 9M); for cell proliferation, comparison of NTF3, HGF, BDNF and NAS: BDNF and HGF 20 ng/ml, NAS 500 nM (FIG. 16E)
Protocol: Primary hepatocyte isolation. Pdgfrb-GFP-negative or H-2Kd mice older than 4 months were anesthetized and cannulated via the portal vein. Livers were perfused with about 25 ml of pre-warmed Liver Perfusion Medium (Gibco, Waltham, MA; 17707-038) followed by about 50 ml Liver Digestion Medium (Gibco, Waltham, MA; 17703-034). Liver capsule was gently teased apart with tweezers and hepatocytes released. Cells were taken up in Hepatocyte Wash Buffer (Gibco, Waltham, MA; 17704-024) and filtered through 100 μm mesh. Cells were then centrifuged for 2 min at 100 g, 4° C. and cell pellet resuspended in ice cold 10 ml DMEM (Gibco, Waltham, MA; 11885-084)/5% FBS. 10 ml of ice cold 100% Percoll®/PBS (GE HealthCare, Chicago, IL; GE17-0891-01) was added for gradient purification and cells centrifuged for 10 min at 200 g, 4° C. Cell pellet was resuspended with 20 ml DMEM/5% FBS and centrifuged for 2 min at 100 g, 4° C. 1-2×10^3 hepatocytes were plated on collagen-coated 96-well plates in DMEM/5% FBS/Pen/Strep. Rat tail collagen I (Gibco, Waltham, MA; A1048301) was used for coating. Cell culture media was changed 3 hours after plating with either serum-free William's E media (Gibco, Waltham, MA) containing Pen/Strep (Gibco, Waltham, MA) or DMEM/5% FBS/Pen/Strep. NTF3 (STEMCELL technologies, Vancouver, Canada) was added 1 day after plating at a final concentration of 20 ng/ml and primary hepatocytes cultured for 3 days with NTF3 until analysis.
Cell proliferation assays. Primary mouse hepatocytes, HepG2 or AML 12 cells were grown in opaque-walled 96-well plates. NTF3 (final concentration 20 ng/ml) (STEMCELL Technologies, Vancouver, Canada; cat. 78074) and/or Loxo-195 (final concentration 5 nM) (Selleckchem, Houston, TX; S8636) were added into complete growth media without L-glutamine. Primary mouse hepatocytes were also grown in serum-free William's E media without supplements. Cells were analyzed by CellTiter-Glo® (Promega G7570, Madison, WI) which detects the number of viable cells on day 0 to day 5 by on detection systems GloMax® (Promega) or Bioteck Synergy H1 (Agilent, Santa Clara, CA). Mouse recombinant HGF (Abcam, Cambridge, UK; ab281797) was added to cell culture media at a final concentration 5 ng/ml. TRKB inhibitor ANA-12 (Selleckchem, Houston, TX; S7745) was diluted in DMSO (10 mM stock solution) and added to cell culture media at a final concentration of 10 nM.
Primary mouse hepatocyte isolation. Mice were anesthetized and cannulated via the portal vein. Livers were perfused with ˜25 ml of prewarmed liver perfusion medium (Gibco, Waltham, MA; 17707-038) followed by ˜50 ml of liver digestion medium (Gibco, Waltham, MA; 17703-034). The liver capsule was gently teased apart with tweezers, and hepatocytes were released. Cells were taken up in Hepatocyte Wash Buffer (Gibco, Waltham, MA; 17704-024) and filtered through a 100-μm mesh. Cells were then centrifuged for 2 min at 100 g, 4° C., and the cell pellet was resuspended in 10 ml of ice-cold DMEM (Gibco, Waltham, MA; 11885-084)/5% FBS. […] of ice-cold 100% Percoll®/PBS (GE HealthCare, Chicago, IL; GE17-0891-01) were added for gradient purification, and cells were centrifuged for 10 min at 200 g, 4° C. The cell pellet was resuspended with 20 ml of DMEM/5% FBS and centrifuged for 2 min at 100 g, 4° C. A total of 1×10^3 to 2×10^3 hepatocytes were plated on collagen-coated 96-well plates in DMEM/5% FBS/Pen/Strep. Rat tail collagen I (Gibco, Waltham, MA; A1048301) was used for coating. Cell culture media were changed 3 hours after plating with either serum-free William's E media (Gibco, Waltham, MA) containing Pen/Strep (Gibco, Waltham, MA) or DMEM/5% FBS/Pen/Strep. […]

In the case of “NTF3: neurotrophin-3, recombinant protein; HSC-derived hepatocyte mitogen, ligand of TRKA, TRKB, TRKC”, the “synergism with HGF on primary hepatocyte proliferation” value (NTF3 20 ng/ml + HGF 5 ng/ml, serum-free medium (FIG. 9N)) is reported as “no synergistic effects”, the “increase of primary hepatocyte proliferation” value (NTF3 20 ng/ml) is reported as 1.5 fold and the “cell proliferation vs control-treated hepatocytes” value (NTF3 20 ng/ml, serum-free and serum-containing media (FIG. 8F, 9D)) is reported as “significantly higher”.

B1: HGF: hepatocyte growth factor, complete hepatocyte mitogen used as comparator (protein, UniProt Q08048 33-495; Q08048 496-728, looked up)
Hepatocyte growth factor …: QKKRRNTLHEFKKSAKTTLTKEDPLLKIKTKKVNSADECANRCIRNRGFTFTCKAFVFDKSRKRCYWYPFNSMSSGVKKGFGHEFDLYENKDYIRNCIIGKGGSYKGTVSITKSGIKCQPWNSMIPHEHSFLPSSYRGKDLQENYCRNPRGEEGGPWCFTSNPEVRYEVCDIPQCSEVECMTCNGESYRGPMDHTESGKTCQRWDQQTPHRHKFLPERYPDKGFDDNYCRNPDGKPRPWCYTLDPDTPWEYCAIKTCAHSAVNETDVPMETTECIQGQGEGYRGTSNTIWNGIPCQRWDSQYPHKHDITPENFKCKDLRENYCRNPDGAESPWCFTTDPNIRVGYCSQIPKCDVSSGQDCYRGNGKNYMGNLSKTRSGLTCSMWDKNMEDLHRHIFWEPDASKLNKNYCRNPDDDAHGPWCYTGNPLIPWDYCPISRCEGDTTPTIVNLDHPVISCAKTKQLR
Hepatocyte growth factor beta …: VVNGIPTQTTVGWMVSLKYRNKHICGGSLIKESWVLTARQCFPARNKDLKDYEAWLGIHDVHERGEEKRKQILNISQLVYGPEGSDLVLLKLARPAILDNFVSTIDLPSYGCTIPEKTTCSIYGWGYTGLINADGLLRVAHLYIMGNEKCSQHHQGKVTLNESELCAGAEKIGSGPCEGDYGGPLICEQHKMRMVLGVIVPGRGCAIPNRPGIFVRVAYYAKWIHKVILTYKL
With B1 the “cell proliferation, comparison of NTF3, HGF, BDNF and NAS” value was “more potent” and the “increase of primary hepatocyte proliferation” value (NTF3 20 ng/ml) was 2.6 fold.

B2: BDNF: brain-derived neurotrophic factor, neurotrophin specific for TrkB (protein)
chain: HSDPARRGELSVCDSISEWVTAADKKTAVDMSGGTVTVLEKVPVSKGQLKQYFYETKCNPMGYTKEGCRGIDKRHWNSQCRTTQSYVRALTMDSKKRIGWRFIRIDTSCVCTLTIKRGR
With B2 the cell proliferation (BDNF 20 ng/ml (FIG. 16C)) was “significantly induced proliferation” and the “cell proliferation, comparison of NTF3, HGF, BDNF and NAS” value was “induce proliferation to a similar extent”.
